Experimental data reported in patent US20130131322A1 (MEDICAL AND BIOLOGICAL LABORATORIES, published 2013).

T1: transmembrane TGF-α (human TGF-α positions 1 to 160) expressed on 293T cells (human, UniProt P01135 24-160)
T1 construct: also called TGF-α/293T; TGFα/293T
T1 sequence: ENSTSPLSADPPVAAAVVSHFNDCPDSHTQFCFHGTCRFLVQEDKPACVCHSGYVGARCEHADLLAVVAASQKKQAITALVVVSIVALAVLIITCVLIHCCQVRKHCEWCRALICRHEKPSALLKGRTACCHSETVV


Legend:
proTGF-α-hFc = molecular target: T2, proTGF-α-hFc (human, UniProt P01135 24-89); assay: solid phase ELISA, proTGFα-hFc on plate
T2 construct: not shown: Fc portion of human immunoglobulin G1, fused on the C-terminal side

TGF-α-hFc = molecular target: T3, TGF-α-hFc (human, UniProt P01135 40-89); assay: solid phase ELISA, TGFα-hFc on plate
T3 construct: not shown: Fc portion of human immunoglobulin G1, fused on the C-terminal side

[1] = molecular target: T4, G79A-substituted human TGF-α expressed on 293T cells (human, UniProt P01135 24-160); assay: flow cytometry on 293T cells
T4 construct: Made from pDIG-TGF-α (positions 1 to 160); also called G79A substitution analog; G79A-substituted TGF-α
Procedure: (§1) After washed with a wash buffer twice, the cells were allowed to react with a 200-fold diluted PE-labeled anti-mouse IgG antibody (MBL CO., LTD.) at 4° C. for 60 minutes.

[2] = molecular target: T5, H74A-substituted human TGF-α expressed on 293T cells (human, UniProt P01135 24-160); assay: flow cytometry on 293T cells
T5 construct: Made from pDIG-TGF-α (positions 1 to 160); also called H74A substitution analog
Procedure: as §1

[3] = molecular target: commercially-available secreted TGF-α biosynthesized by Escherichia coli (R&D systems Inc.) (human, UniProt P01135 40-89); assay: cell-based or functional assay
[4] = molecular target: T1, transmembrane TGF-α (human TGF-α …); assay: flow cytometry, culture supernatant on transmembrane TGF-α/293T

Binder	OD (solid phase ELISA) (proTGF-α-hFc) [OD]	OD (solid phase ELISA) (TGF-α-hFc) [OD]	binding result [1]	binding result [2]	inhibition of EGFR tyrosine phosphorylation (P-Tyr1173) in A431 cells, antibody at 10 µg/mL [3] [%]	binding result [4]
MBL018-1 (antibody, mouse IgG1, V domains shown) VH: EVQLQQSGTVLTRPGASVKMSCKASGYTFTNFWIHWVKQRPGQGLDWIGAIYPGNTNTDYNQKFQGKAKLTAVSSASTAYMELSSLTNEDSAVYYCTRGGAMDYWGQGTSVTVSS VL: IVMTQTPKLLPVSAGDRVTMTCKASQSVDNSVAWYQQKPGQSPKLLIFYASNHYTGVPDRFTASGSGTDFTFTISSVQVEDLAVYFCQQHFSSPRTFGGGTKLEIR	1.51	0.703	no binding (tested: 5 µg/mL)	binds	≥ 70	–
humanized chimeric anti-TGF-α antibody of MBL018-1 (antibody, human IgG1, V domains shown, tested as 293T culture supernatant; also called recombinant antibody MBL018-1) VH: EVQLQQSGTVLTRPGASVKMSCKASGYTFTNFWIHWVKQRPGQGLDWIGAIYPGNTNTDYNQKFQGKAKLTAVSSASTAYMELSSLTNEDSAVYYCTRGGAMDYWGQGTSVTVSS VL: IVMTQTPKLLPVSAGDRVTMTCKASQSVDNSVAWYQQKPGQSPKLLIFYASNHYTGVPDRFTASGSGTDFTFTISSVQVEDLAVYFCQQHFSSPRTFGGGTKLEIR	–	–	–	–	–	binds
MBL009-15 (antibody, mouse IgG1, V domains shown) VH: VQLQESGPGLVKPSQSLSLTCTVTGYSITSDYAWNWIRQFPGNKLEWMGYISYSGSTSYNPSLKSRISITRDTSKNQFFLQLNSVTTEDTATYYCARGGITRFAYWGQGTLVTVSA VL: DIQMTQTTSSLSASLGDRLTISCRASQDIRNYLNWYQQKPDGTVKLLIYYTSRLHSGVPSRFSGSGSGTDYSLTISNLEQEDIATYFCQQGNTLPWTFGGGTKLEIK	1.51	0.879	no binding (tested: 5 µg/mL)	binds	–	–
humanized chimeric anti-TGF-α antibody of MBL009-15 (antibody, human IgG1, V domains shown, tested as 293T culture supernatant; also called recombinant antibody MBL009-15) VH: VQLQESGPGLVKPSQSLSLTCTVTGYSITSDYAWNWIRQFPGNKLEWMGYISYSGSTSYNPSLKSRISITRDTSKNQFFLQLNSVTTEDTATYYCARGGITRFAYWGQGTLVTVSA VL: DIQMTQTTSSLSASLGDRLTISCRASQDIRNYLNWYQQKPDGTVKLLIYYTSRLHSGVPSRFSGSGSGTDYSLTISNLEQEDIATYFCQQGNTLPWTFGGGTKLEIK	–	–	–	–	–	binds
MBL259-3 (antibody, mouse IgG2a, V domains shown) VH: VQLQQSGAELVRPGASVKLSCTASDFNIKDDYMHWMKQRPEQGLEWIGRIDPANGNTKYAPKFQDKATMTADTSSNTAYLQFSSLTSEDTAVYYCATSWGFPYWGQGTLVTVSA VL: DIVMTQAAPSVPVTPGESVSISCRSSKSLLHRNGNTYLYWFLQRPGQSPQLLIYRMSNLASGVPDRFSGSGSGTAFTLRISRVEAEDVGVYYCLQHLEYPYTFGSGTKLEIK	1.59	1.11	no binding (tested: 5 µg/mL)	binds	–	–
humanized chimeric anti-TGF-α antibody of MBL259-3 (antibody, human IgG1, V domains shown, tested as 293T culture supernatant; also called recombinant antibody MBL259-3) VH: VQLQQSGAELVRPGASVKLSCTASDFNIKDDYMHWMKQRPEQGLEWIGRIDPANGNTKYAPKFQDKATMTADTSSNTAYLQFSSLTSEDTAVYYCATSWGFPYWGQGTLVTVSA VL: DIVMTQAAPSVPVTPGESVSISCRSSKSLLHRNGNTYLYWFLQRPGQSPQLLIYRMSNLASGVPDRFSGSGSGTAFTLRISRVEAEDVGVYYCLQHLEYPYTFGSGTKLEIK	–	–	–	–	–	binds
MBL144-1 (antibody, mouse IgG1, V domains shown) VH: VQLQESGPGLAKPSQTLSLTCSVTGYSITSDYWNWIRKFPGNKLEYMGYISYSGSTYYNPSLKSRISITRDTSKNQYYLQLNSVTTEDTATYYCARSYDGICFDNWGQGTTLTVSS VL: DILMTQSPATLSVTPGETVSLSCRASQNTYKNLHWYQQKSHGTPKLLIKYASAPISGIPSRFTGSGSGTDYTLSINSVKPEDEGIYYCLQGYSMPWTFGGGTKLEIK	1.42	0.65	no binding (tested: 5 µg/mL)	binds	≥ 70	–
humanized chimeric anti-TGF-α antibody of MBL144-1 (antibody, human IgG1, V domains shown, tested as 293T culture supernatant; also called recombinant antibody MBL144-1) VH: VQLQESGPGLAKPSQTLSLTCSVTGYSITSDYWNWIRKFPGNKLEYMGYISYSGSTYYNPSLKSRISITRDTSKNQYYLQLNSVTTEDTATYYCARSYDGICFDNWGQGTTLTVSS VL: DILMTQSPATLSVTPGETVSLSCRASQNTYKNLHWYQQKSHGTPKLLIKYASAPISGIPSRFTGSGSGTDYTLSINSVKPEDEGIYYCLQGYSMPWTFGGGTKLEIK	–	–	–	–	–	binds
MBL016-8 (antibody, mouse IgG2a, V domains shown) VH: VQLQQSGAELVRPGASVKLSCTASGFNIKDDYMYWVKQRPEQGLEWIGRIDPANGNTKYAPKFQDKATITADTSSNTAYLHLSSLTSEDTAVFYCAYRRAYWGQGTLVTVSA VL: DIQMTQSPSSLSASLGGKVTITCKASQDINKYIAWYQHKPGKGPRLFIHYTSKLQPGIPSRFSGSGSGRDYSFSISNLEPEDIATYYCLQYDNLLYTFGGGTKLEIK	1.37	0.869	no binding (tested: 5 µg/mL)	binds	≥ 70	–
humanized chimeric anti-TGF-α antibody of MBL016-8 (antibody, human IgG1, V domains shown, tested as 293T culture supernatant; also called recombinant antibody MBL016-8) VH: VQLQQSGAELVRPGASVKLSCTASGFNIKDDYMYWVKQRPEQGLEWIGRIDPANGNTKYAPKFQDKATITADTSSNTAYLHLSSLTSEDTAVFYCAYRRAYWGQGTLVTVSA VL: DIQMTQSPSSLSASLGGKVTITCKASQDINKYIAWYQHKPGKGPRLFIHYTSKLQPGIPSRFSGSGSGRDYSFSISNLEPEDIATYYCLQYDNLLYTFGGGTKLEIK	–	–	–	–	–	binds
MBL292-1 (antibody, mouse IgG1, V domains shown) VH: VQLQQSGAELVRPGASVKLSCTASGFNIKDDYMHWMKQRPEQGLEWIGRIDPANGNTKYAPKFQDKATITADTSSNTAYLQLSSLTSEDTAVYYCSRMGLLRGYWGQGTTLTVSS VL: IQMTQSSSSLSVSLGDRVTITCKASVHINSWLAWYQQKPGNAPRLLISGATNLKTGVPSRFSGSASGKDYTLSITSLQTEDVATYYCQQYWDTPWTFGGGTKLEIK	1.45	1.04	no binding (tested: 5 µg/mL)	binds	≥ 70	–
humanized chimeric anti-TGF-α antibody of MBL184-6 (antibody, human IgG1, V domains shown, tested as 293T culture supernatant; also called recombinant antibody MBL184-6) VH: EVQLQQSGAELVRPGASVKLSCTVSGFNIKDDYMHWVKQRPEQGLEWIGRIDPANGHTKYAPKFQDKATITADTSSNTAYLQFSSLTSEDTAVYYCTRMGLRRGYWGQGTTLTVSS VL: IQMTQSSSSLSVSLGDRVTITCKASEHINSWLAWYQQKPGNAPRLLISGATNLKTGVPSRFSGSASGKDYTLNITSLQTEDVATYYCQQYWGTPWTFGGGTKLEIK	–	–	–	–	–	binds
humanized chimeric anti-TGF-α antibody of MBL292-1 (antibody, human IgG1, V domains shown, tested as 293T culture supernatant; also called recombinant antibody MBL292-1) VH: VQLQQSGAELVRPGASVKLSCTASGFNIKDDYMHWMKQRPEQGLEWIGRIDPANGNTKYAPKFQDKATITADTSSNTAYLQLSSLTSEDTAVYYCSRMGLLRGYWGQGTTLTVSS VL: IQMTQSSSSLSVSLGDRVTITCKASVHINSWLAWYQQKPGNAPRLLISGATNLKTGVPSRFSGSASGKDYTLSITSLQTEDVATYYCQQYWDTPWTFGGGTKLEIK	–	–	–	–	–	binds
MBL184-6 (antibody, mouse IgG1, V domains shown) VH: EVQLQQSGAELVRPGASVKLSCTVSGFNIKDDYMHWVKQRPEQGLEWIGRIDPANGHTKYAPKFQDKATITADTSSNTAYLQFSSLTSEDTAVYYCTRMGLRRGYWGQGTTLTVSS VL: IQMTQSSSSLSVSLGDRVTITCKASEHINSWLAWYQQKPGNAPRLLISGATNLKTGVPSRFSGSASGKDYTLNITSLQTEDVATYYCQQYWGTPWTFGGGTKLEIK	1.4	0.745	no binding (tested: 5 µg/mL)	binds	≥ 70	–
humanized chimeric anti-TGF-α antibody of MBL352-34 (antibody, human IgG1, V domains shown, tested as 293T culture supernatant; also called recombinant antibody MBL352-34) VH: VQLQQSGAELVRPGASVKLSCTASGFNIKDDYMHWVKQRPEQGLEWIGRIDPANGHTKYAPKFQDKATITADTSSNTAYLQFSSLTSEDTAVYYCTRMGLRRGYWGQGTTLTVSS VL: IQMTQSSSSLSVSLGDRVTITCKASEHINSWLAWYQQKPGNAPRLLISGATNLKTGVPSRFSGSASGKDYTLSITSLQTEDVATYYCQQYWGTPWTFGGGTKLEIK	–	–	–	–	–	binds
MBL352-34 (antibody, mouse IgG1, V domains shown) VH: VQLQQSGAELVRPGASVKLSCTASGFNIKDDYMHWVKQRPEQGLEWIGRIDPANGHTKYAPKFQDKATITADTSSNTAYLQFSSLTSEDTAVYYCTRMGLRRGYWGQGTTLTVSS VL: IQMTQSSSSLSVSLGDRVTITCKASEHINSWLAWYQQKPGNAPRLLISGATNLKTGVPSRFSGSASGKDYTLSITSLQTEDVATYYCQQYWGTPWTFGGGTKLEIK	1.35	0.704	no binding (tested: 5 µg/mL)	binds	≥ 70	–
